This is an account of results in patent publication US20180208648A1 (SCHOLAR ROCK, published 2018).

For assay [1], the target named is T1, human proGDF11 (human, UniProt O95390 25-407, biotinylated (NHS-PEG4-Biotin), site not stated).
T1 sequence: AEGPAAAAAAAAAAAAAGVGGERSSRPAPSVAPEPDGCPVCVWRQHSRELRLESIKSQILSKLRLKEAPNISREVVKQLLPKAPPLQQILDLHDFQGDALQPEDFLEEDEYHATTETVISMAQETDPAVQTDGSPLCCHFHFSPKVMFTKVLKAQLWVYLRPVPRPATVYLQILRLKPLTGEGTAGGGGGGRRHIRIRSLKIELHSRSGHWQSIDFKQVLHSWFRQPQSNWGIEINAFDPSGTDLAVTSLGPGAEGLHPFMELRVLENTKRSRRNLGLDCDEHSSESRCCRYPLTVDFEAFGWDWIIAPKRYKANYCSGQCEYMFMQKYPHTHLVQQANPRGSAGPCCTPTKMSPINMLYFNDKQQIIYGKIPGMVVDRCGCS
Nature of the assay: cell-based or functional assay.

In assay [2] the target is T2, human mature GDF11 (human, UniProt O95390 299-407, biotinylated, site not stated).
T2 construct: Growth factor domain; also called GDF11 mature growth factor
T2 sequence: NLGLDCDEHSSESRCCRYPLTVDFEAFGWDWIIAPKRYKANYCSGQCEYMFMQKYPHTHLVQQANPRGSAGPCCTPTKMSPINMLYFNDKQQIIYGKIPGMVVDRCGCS
Put plainly: ELISA, biotinylated antigen on neutravidin plate. The source says: (§1) Candidate clones were converted to human IgG1 format. Full-length IgG antibodies were further characterized by ELISA for binding to the human and murine pro- and latent-forms of myostatin and GDF11. Antibodies were also screened for binding to the Myostatin prodomain (SEQ ID NO: 85), proTGFDβ1 (human and murine), the mature growth factor of Myostatin (SEQ ID NO: 89), the GDF11 mature growth factor (SEQ ID NO: 90), and proActivin A (SEQ ID NO: 84). Chimeric constructs which swapped portions of the prodomains of Myostatin and GDF11 were designed and produced. For example proGDF11 arm8 (SEQ ID NO: 112) refers to GDF11 having the GDF8 arm domain, and prodomain GDF11 arm8 (SEQ ID NO: 114) refers to the GDF11 prodomain having the GDF8 arm domain. These chimeric proteins were assayed for interaction with screening antibodies by ELISA and allowed for the assessment of binding of antibodies to the ARM or straight jacket portions of the GDF11 prodomain complex. Antibodies were selected based on their cross-reactivity with pro- and latent human and murine GDF11, with no interactions with GDF8, Activin, or TGFβ proteins. Activin A is a homodimer of inhibin-beta A subunits. For example, Inhibin-beta A can heterodimerize with other proteins to produce different Activin proteins.
(§2) Enzyme-linked immunosorbent assay (ELISA) analysis is carried out to assess antibody binding. 96-well ELISA assay plates are coated with neutravidin, a deglycosylated version of streptavidin with a more neutral pH. Target proteins are expressed with or without histidine (His) tags and subjected to biotinylation. Biotinylated target proteins are incubated with neutravidin-coated ELISA assay plates for two hours at room temperature and unbound proteins are removed by washing three times with wash buffer (either 25 mM Tris, 150 mM NaCl, 0.05% TWEEN®-20, or 20 mM Hepes pH 7.5, 500 mM NaCl, 0.05% TWEEN®-20). Primary antibodies being tested are added to each well and allowed to incubate at room temperature for 1 hour or more. Unbound antibody is then removed by washing three times with wash buffer. Secondary antibodies capable of binding to primary antibodies being tested and conjugated with detectable labels are then incubated in each well for 30 minutes at room temperature. Unbound secondary antibodies are removed by washing three times with wash buffer.

Assay [3] concerns the target T3, human proGDF11 ARM8 (human, biotinylated, site not stated).
T3 construct: GDF11 having the GDF8 arm domain
T3 chain: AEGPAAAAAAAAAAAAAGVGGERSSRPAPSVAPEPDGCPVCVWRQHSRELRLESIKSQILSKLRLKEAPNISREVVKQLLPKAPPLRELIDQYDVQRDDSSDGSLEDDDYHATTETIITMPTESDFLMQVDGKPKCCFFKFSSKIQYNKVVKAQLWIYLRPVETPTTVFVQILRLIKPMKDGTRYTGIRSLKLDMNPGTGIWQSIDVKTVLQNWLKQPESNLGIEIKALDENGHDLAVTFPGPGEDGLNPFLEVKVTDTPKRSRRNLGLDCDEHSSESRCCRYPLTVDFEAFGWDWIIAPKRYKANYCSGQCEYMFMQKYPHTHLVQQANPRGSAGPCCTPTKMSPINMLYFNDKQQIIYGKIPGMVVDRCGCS
Put plainly: ELISA, biotinylated antigen on neutravidin plate.
Source text: as §1, §2

Assay [4] has as its target T4, human prodomain GDF11 ARM8 (human, biotinylated, site not stated).
T4 construct: GDF11 prodomain having the GDF8 arm domain; also called human GDF11 ARM8 prodomain
T4 chain: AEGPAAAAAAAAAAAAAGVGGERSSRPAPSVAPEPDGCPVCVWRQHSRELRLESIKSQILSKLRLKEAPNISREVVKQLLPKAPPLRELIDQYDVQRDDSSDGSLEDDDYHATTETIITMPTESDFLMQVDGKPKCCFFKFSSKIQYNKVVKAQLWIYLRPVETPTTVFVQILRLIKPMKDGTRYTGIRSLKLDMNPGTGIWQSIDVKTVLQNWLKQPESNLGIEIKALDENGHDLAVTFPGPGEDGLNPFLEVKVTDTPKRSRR
Put plainly: ELISA, biotinylated antigen on neutravidin plate.
Source text: as §1, §2

For assay [5], the target named is T5, murine proGDF11 (mouse, UniProt Q9Z1W4 25-405, biotinylated, site not stated).
T5 construct: also called mu proGDF11
T5 sequence: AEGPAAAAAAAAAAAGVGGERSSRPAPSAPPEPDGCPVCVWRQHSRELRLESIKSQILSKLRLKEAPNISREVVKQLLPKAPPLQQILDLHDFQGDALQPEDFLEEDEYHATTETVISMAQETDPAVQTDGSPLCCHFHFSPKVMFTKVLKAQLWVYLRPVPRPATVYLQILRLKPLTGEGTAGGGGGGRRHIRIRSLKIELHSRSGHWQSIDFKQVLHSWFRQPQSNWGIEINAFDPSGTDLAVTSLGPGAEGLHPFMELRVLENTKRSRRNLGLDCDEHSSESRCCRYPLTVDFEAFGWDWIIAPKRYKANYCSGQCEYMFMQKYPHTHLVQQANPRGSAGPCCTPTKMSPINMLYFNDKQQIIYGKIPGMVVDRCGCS
Put plainly: BLI (ForteBio Octet).

B1: GDF11 Inh-2 (antibody, V domains shown)
VH: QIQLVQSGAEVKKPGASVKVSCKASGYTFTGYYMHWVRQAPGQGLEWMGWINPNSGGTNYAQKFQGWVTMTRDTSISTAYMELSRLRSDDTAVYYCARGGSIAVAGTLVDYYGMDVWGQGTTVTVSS
VL: DIQMTQSPSSLSASVGDRVTITCQASQDISNYLNWYQQKPGKAPKLLIYDASNLETGVPSRFSGSGSGTDFTLTISSLQPEDVATYYCQKYSTAPLTFGGGTKVEIKR
notes: also called Clone GDF11 Inh-2
Consider B1, for which the “EC50, proGDF11 activation assay at 50 nM proGDF11” value in assay [1] was 27.5 nM. Moreover, the binding result in assay [2], in assay [3] and in assay [4] was “no binding” in each case. The molecule further showed a Kd in assay [5] of 1.73 nM.

B2: GDF11 Inh-4 (antibody, V domains shown)
VH: QVQLVQSGAEVKKPGASVKVSCKASGYTFTSYGISWVRQAPGQGLEWMGWISAYNGNTNYAQKLQGRVTMTTDTSTSTAYMELRSLRSDDTAVYYCARTPPLWFGEYGAFDIWGQGAMVTVSS
VL: DIQMTQSPSSLSASVGDRVTITCQASQDISNYLNWYQQKPGKAPKLLIYDASNLETGVPSRFSGSGSGTDFTLTISSLQPDDFATYYCQQSYTTPITFGQGTRLEIKR
notes: also called Clone GDF11 Inh-4
With B2, in assay [1], the “EC50, proGDF11 activation assay at 50 nM proGDF11” value amounted to 26.7 nM. Also, the binding result in assay [2], in assay [3] and in assay [4] was “no binding” each time.
